Results published in PMC7888556 (Biochemical and biophysical research communications, 2017).

Biological target: T1, CEP192-WT (residues 507-1065 of human CEP192, C-terminal V5 and 6XHis tags) (human, UniProt Q8TEP8 507-1065)
T1 sequence (looked up): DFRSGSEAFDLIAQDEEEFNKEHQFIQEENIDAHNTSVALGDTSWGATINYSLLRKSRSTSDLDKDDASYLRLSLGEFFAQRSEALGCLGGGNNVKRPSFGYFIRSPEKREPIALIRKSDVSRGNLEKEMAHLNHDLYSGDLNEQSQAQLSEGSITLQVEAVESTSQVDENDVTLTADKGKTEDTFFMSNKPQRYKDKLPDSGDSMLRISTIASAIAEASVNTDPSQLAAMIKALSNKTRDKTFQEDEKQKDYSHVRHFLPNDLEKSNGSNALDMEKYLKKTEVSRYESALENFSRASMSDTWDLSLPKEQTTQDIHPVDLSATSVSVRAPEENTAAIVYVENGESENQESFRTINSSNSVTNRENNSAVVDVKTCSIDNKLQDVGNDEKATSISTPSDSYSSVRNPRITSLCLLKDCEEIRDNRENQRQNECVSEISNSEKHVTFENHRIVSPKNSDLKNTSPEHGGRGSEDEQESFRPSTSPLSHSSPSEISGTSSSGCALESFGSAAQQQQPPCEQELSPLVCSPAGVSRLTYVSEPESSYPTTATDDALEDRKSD
Test: pull-down

binding result: binds
B1: Human PP1β (type one protein phosphatase, purified) (enzyme, UniProt P62140 1-327, looked up)
chain: MADGELNVDSLITRLLEVRGCRPGKIVQMTEAEVRGLCIKSREIFLSQPILLELEAPLKICGDIHGQYTDLLRLFEYGGFPPEANYLFLGDYVDRGKQSLETICLLLAYKIKYPENFFLLRGNHECASINRIYGFYDECKRRFNIKLWKTFTDCFNCLPIAAIVDEKIFCCHGGLSPDLQSMEQIRRIMRPTDVPDTGLLCDLLWSDPDKDVQGWGENDRGVSFTFGADVVSKFLNRHDLDLICRAHQVVEDGYEFFAKRQLVTLFSAPNYCGEFDNAGGMMSVDETLMCSFQILKPSEKKAKYQYGGLNSGRPVTPPRTANPPKKR
